For orientation: Kd means the constant that tells how readily two partners part at equilibrium.

In test [1] the target is Apurinic/apyrimidinic-endonuclease 1 (UniProt P27695). Put plainly: SPR; Biacore X-100, 25 °C; GST-tag polβ or APE1 immobilised on CM5 chip (EDC/NHS, 10 mM sodium acetate pH 4.0), his-tag LIG1 or LIGIIIα proteins as analytes; 10 mM Hepes pH 7.4, 150 mM NaCl, 3 mM EDTA, 0.005% P20; 1:1 (Langmuir) model; polβ truncated mutants (Fig. S2) tested likewise, orientation not given. A general note: In SPR one partner is held on a chip, and binding of the other changes the refractive index at the surface.
Chain of Apurinic/apyrimidinic-endonuclease 1 (P27695 whole entry, the tested form may be a part): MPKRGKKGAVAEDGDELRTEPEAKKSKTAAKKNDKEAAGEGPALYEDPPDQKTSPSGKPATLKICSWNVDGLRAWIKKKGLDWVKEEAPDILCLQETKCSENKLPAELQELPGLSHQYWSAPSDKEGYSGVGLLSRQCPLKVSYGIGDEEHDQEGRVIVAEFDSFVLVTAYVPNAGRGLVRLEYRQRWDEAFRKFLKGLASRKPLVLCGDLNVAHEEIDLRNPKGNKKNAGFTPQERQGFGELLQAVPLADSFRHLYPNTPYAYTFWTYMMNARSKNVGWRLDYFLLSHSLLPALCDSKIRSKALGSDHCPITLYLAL

For test [2], the target named is GST-tag DNA polymerase β, full-length (1–335 amino acids) (UniProt P06746). Described as above.
The target of test [3] is Polβ C-terminal (92–335 amino acids) (UniProt P06746). The description is as above.
Test [4] deals with Polβ N-terminal (1–92 amino acids) (UniProt P06746). Described as above.
Test [5] has as its target Polβ C-terminal (92–335 amino acids), as used in SPR (UniProt P06746). In words: SPR; Supplementary Figures 2 and 3; partner immobilised on the CM5 chip not given; Biacore X-100, 25 °C; 10 mM Hepes pH 7.4, 150 mM NaCl, 3 mM EDTA, 0.005% surfactant P20; 1:1 (Langmuir) fit.
Test [6] addresses GST-tag APE1 full-length (apurinic/apyrimidinic-endonuclease 1) (UniProt P27695). Put plainly: SPR; GST-tag polβ or APE1 immobilised on CM5 chip (EDC/NHS), his-tag LIG1 or LIGIIIα passed as analyte; Biacore X-100, 25 °C; 10 mM Hepes pH 7.4, 150 mM NaCl, 3 mM EDTA, 0.005% surfactant P20; 1:1 (Langmuir) fit.
The target in test [7] is GST-tag polβ full-length (DNA polymerase β, 1–335 amino acids) (UniProt P06746). The description is as above.
For test [8] the target is unchanged. In words: SPR; Supplementary Figures 2 and 3; partner immobilised on the CM5 chip not given; Biacore X-100, 25 °C; 10 mM Hepes pH 7.4, 150 mM NaCl, 3 mM EDTA, 0.005% surfactant P20; 1:1 (Langmuir) fit.
Test [9] has as its target His-tag LIGIIIα full-length (DNA ligase IIIα, 1–922 amino acids). The test is described as above.

Chain of GST-tag APE1 full-length (apurinic/apyrimidinic-endonuclease 1) (P27695 whole entry, the tested form may be a part): as above
Chain of X-ray repair crosscomplementing protein 1 (XRCC1), his-tag (P18887 whole entry): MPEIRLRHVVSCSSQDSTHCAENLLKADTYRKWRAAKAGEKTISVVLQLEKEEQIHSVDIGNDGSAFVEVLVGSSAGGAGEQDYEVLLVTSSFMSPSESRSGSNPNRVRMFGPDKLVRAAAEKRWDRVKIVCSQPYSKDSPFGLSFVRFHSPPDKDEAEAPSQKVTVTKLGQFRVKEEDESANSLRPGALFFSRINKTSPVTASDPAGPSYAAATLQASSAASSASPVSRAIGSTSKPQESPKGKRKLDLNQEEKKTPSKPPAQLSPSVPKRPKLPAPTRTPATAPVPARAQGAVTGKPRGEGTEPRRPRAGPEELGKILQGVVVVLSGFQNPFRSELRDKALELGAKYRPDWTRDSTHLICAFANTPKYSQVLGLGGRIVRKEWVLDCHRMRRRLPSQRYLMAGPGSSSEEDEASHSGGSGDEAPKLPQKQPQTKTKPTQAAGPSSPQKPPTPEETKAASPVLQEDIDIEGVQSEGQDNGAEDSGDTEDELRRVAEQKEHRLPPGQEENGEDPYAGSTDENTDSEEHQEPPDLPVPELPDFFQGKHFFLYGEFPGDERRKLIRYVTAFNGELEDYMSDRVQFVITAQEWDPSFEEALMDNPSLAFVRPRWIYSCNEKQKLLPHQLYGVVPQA
Chain of poly (ADP-ribose) polymerase 1 (PARP1), his-tag (P09874 whole entry): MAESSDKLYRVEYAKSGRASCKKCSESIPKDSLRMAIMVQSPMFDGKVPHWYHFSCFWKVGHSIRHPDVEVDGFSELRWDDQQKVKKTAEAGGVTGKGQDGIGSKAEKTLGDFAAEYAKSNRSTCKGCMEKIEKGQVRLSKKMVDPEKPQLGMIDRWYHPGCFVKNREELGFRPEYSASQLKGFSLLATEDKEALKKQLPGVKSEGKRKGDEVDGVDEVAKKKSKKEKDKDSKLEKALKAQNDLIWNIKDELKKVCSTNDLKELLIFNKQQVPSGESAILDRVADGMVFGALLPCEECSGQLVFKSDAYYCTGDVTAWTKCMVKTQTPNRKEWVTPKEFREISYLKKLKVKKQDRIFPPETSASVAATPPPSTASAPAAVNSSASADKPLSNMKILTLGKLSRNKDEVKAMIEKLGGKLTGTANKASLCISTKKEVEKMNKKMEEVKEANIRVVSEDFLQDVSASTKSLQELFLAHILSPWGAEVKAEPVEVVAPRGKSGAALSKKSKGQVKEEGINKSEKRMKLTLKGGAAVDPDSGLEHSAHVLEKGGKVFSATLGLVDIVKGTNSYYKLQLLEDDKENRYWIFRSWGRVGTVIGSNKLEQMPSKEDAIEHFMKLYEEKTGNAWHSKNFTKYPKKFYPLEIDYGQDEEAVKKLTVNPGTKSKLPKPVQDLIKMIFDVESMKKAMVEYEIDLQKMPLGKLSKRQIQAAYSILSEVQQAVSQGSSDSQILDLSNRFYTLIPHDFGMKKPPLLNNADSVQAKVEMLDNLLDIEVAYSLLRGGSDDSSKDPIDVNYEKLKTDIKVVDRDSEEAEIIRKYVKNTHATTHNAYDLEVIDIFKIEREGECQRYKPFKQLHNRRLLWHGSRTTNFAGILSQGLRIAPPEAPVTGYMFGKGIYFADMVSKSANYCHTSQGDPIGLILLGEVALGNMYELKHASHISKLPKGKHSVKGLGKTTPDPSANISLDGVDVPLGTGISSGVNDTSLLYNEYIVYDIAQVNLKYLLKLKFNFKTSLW

Take “DNA ligase IIIα full-length (1–922 amino acids) (enzyme)”: the Kd in test [1] is 0.0033 µM; in [2] it was 0.007 µM; in [4], 0.032 µM. Also, the fold reduction of binding against the full-length proteins in test [3] came out at 500 fold.
In test [5], “His-tag LIG1 full-length (DNA ligase 1, 1–919 amino acids) (from UniProt P18858 1-919) (enzyme)” came in with a Kd of 0.74 µM.
As for “His-tag LIGIIIα full-length (DNA ligase IIIα, 1–922 amino acids) (enzyme)”, the Kd in test [5] came to 0.5 µM.
Turning to “LIGIIIα△BRCT (1–755 amino acids), LIGIIIα lacking the BRCT domain (domain or fragment)”, the Kd in test [6] was 1.05 µM.
For “LIGIIIα△ZnF (170–922 amino acids), LIGIIIα lacking the zinc-finger domain (domain or fragment)”, the figures for the Kd in test [6] and in [7] were 0.0049 µM and 0.027 µM, respectively.
Substance “LIGIIIα▵BRCT (1–755 amino acids) (domain or fragment)” had a fold difference in KD against LIGIIIα▵ZnF in test [1] of 1000 fold. Further, the Kd in [2] is 0.52 µM.
“LIGIIIα▵ZnF (170–922 amino acids) (domain or fragment)” registered a Kd in [2] of 0.03 µM.
In test [8], “X-ray repair crosscomplementing protein 1 (XRCC1), his-tag (from UniProt P18887 1-633) (natural protein; other documents disagree on this pair)” returned a Kd of 0.01 µM.
The substance “poly (ADP-ribose) polymerase 1 (PARP1), his-tag (from UniProt P09874 1-1014) (enzyme)” registered a Kd in [9] of 0.02 µM.
